Where a chain is given by its changes, count along the chain named.
Columns and labels:
Csl4 = molecular target: T1, Csl4 (Saccharolobus (Sulfolobus) solfataricus, UniProt Q980J9 1-189); test: EMSA; 25 fmol RNA; 20 mM HEPES pH 7.9, 60 mM KCl, 10 mM MgCl2, 10% glycerol, 2 mM DTT, 0.1 mM EDTA; room temperature 5 min, 10 ul; 5% native PAA gel at 4 C
T1 sequence: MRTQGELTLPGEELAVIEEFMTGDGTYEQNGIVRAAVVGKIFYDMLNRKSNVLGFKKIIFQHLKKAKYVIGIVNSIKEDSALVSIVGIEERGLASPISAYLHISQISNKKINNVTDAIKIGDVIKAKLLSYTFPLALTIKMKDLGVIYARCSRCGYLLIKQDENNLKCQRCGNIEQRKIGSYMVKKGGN

Csl4-NT = molecular target: T2, Csl4-NT (Saccharolobus (Sulfolobus) solfataricus, UniProt Q980J9 1-189+=V+P95980:2-156, internal_change); test: as above
T2 sequence: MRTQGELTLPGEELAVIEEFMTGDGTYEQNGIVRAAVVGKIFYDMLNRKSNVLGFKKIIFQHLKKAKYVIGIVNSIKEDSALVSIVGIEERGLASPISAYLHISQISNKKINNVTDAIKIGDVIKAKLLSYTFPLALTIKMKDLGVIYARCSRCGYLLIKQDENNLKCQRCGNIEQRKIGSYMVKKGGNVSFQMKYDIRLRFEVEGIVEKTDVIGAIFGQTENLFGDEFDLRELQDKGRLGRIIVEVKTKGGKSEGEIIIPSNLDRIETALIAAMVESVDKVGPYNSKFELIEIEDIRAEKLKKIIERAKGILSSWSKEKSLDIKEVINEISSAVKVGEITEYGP

DnaG [1] = molecular target: T3, DnaG (Saccharolobus (Sulfolobus) solfataricus, UniProt P95980 1-406); test: EMSA; 25 fmol RNA, 2.5 pmol protein; 20 mM HEPES pH 7.9, 60 mM KCl, 10 mM MgCl2, 10% glycerol, 2 mM DTT, 0.1 mM EDTA; room temperature 5 min, 10 ul; 5% native PAA gel at 4 C
T3 sequence: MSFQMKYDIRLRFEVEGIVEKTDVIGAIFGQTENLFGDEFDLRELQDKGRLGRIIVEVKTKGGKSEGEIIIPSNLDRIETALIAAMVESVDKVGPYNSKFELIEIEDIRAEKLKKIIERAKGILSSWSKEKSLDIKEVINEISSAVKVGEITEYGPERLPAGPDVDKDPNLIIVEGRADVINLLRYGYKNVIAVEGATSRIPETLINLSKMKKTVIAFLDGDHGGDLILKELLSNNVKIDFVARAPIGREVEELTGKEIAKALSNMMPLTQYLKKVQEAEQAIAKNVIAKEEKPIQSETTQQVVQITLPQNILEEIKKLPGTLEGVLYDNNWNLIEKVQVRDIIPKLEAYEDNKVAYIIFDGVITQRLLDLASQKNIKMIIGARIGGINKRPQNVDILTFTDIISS

DnaG-K6AY7A = molecular target: T4, DnaG-K6AY7A (Saccharolobus (Sulfolobus) solfataricus, UniProt P95980 1-406, K6A;Y7A); test: as above
T4 sequence: T3 sequence with K6A, Y7A

[2] = molecular target: T5, His6-Rrp41 of Sulfolobus solfataricus (Sulfolobus solfataricus, UniProt Q9UXC2 1-248); test: pull-down; subunits of the reconstituted Strep-Csl4 exosome (purified His6-Rrp41, His6-Rrp42 and Strep-tagged Csl4 mixed in buffer P0) recovered on Strep-Tactin Sepharose through Strep-Csl4, E. coli cell-free extract with DnaG-K6AY7A present; eluted with D-desthiobiotin; silver-stained SDS-PAGE; conditions: both partners purified
T5 sequence (looked up): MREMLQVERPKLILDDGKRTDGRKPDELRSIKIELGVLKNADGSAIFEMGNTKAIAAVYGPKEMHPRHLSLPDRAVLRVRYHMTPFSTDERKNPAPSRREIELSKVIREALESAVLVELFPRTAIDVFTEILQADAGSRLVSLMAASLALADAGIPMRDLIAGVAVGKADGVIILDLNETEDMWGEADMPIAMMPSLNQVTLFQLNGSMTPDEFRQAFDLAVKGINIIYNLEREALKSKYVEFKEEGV

[3] = molecular target: T6, His6-Rrp42 of Sulfolobus solfataricus (Sulfolobus solfataricus, UniProt Q9UXC0 1-275); test: as above; conditions: both partners purified
T6 sequence (looked up): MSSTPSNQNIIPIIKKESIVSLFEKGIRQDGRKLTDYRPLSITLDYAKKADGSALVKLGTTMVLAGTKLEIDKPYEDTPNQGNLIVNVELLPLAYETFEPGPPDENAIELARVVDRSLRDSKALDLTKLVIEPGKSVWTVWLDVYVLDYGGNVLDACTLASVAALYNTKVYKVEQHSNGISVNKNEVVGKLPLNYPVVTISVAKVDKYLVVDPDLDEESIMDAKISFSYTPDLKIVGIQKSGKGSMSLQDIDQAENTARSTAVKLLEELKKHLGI

DnaG [4] = molecular target: T3, DnaG; test: EMSA; 25 fmol DNA, 2.5 pmol protein; 20 mM HEPES pH 7.9, 60 mM KCl, 10 mM MgCl2, 10% glycerol, 2 mM DTT, 0.1 mM EDTA; room temperature 5 min, 10 ul; 5% native PAA gel at 4 C

B1: poly(rA)30 (ssRNA)
RNA: AAAAAAAAAAAAAAAAAAAAAAAAAAAAAA
**Q.** Does B1 bind (Csl4)?
**A.** Result: no binding

**Q.** Does B1 bind (Csl4-NT)?
**A.** Result: binds

**Q.** Does B1 bind (DnaG [1])?
**A.** Result: binds

**Q.** Does B1 bind (DnaG-K6AY7A)?
**A.** Result: no binding

B2: Strep-tagged Csl4 of Sulfolobus solfataricus (natural protein, UniProt Q980J9 1-189, looked up)
chain: T1 sequence
**Q.** Which results are given for B2?
**A.** binding result [2]: binds; binding result [3]: binds

B3: poly(dA)30 (ssDNA)
DNA: B1 RNA
**Q.** Does B3 bind (DnaG [4])?
**A.** Result: no binding
